Molecular target: elastase (porcine pancreas, Sigma Aldrich) (porcine) (UniProt P00772)
Assay: cell-based or functional assay

Sequence of elastase (porcine pancreas, Sigma Aldrich) (porcine) (P00772 27-266): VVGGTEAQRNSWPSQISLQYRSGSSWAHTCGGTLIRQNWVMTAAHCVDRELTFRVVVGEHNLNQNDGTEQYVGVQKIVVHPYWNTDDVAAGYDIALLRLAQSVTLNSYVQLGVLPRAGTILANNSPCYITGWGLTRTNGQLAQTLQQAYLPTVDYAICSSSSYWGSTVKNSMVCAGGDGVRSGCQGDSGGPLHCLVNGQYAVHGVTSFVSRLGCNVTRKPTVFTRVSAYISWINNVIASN
Sequence of alpha-1-antitrypsin enriched native human HDL (P01009 25-418): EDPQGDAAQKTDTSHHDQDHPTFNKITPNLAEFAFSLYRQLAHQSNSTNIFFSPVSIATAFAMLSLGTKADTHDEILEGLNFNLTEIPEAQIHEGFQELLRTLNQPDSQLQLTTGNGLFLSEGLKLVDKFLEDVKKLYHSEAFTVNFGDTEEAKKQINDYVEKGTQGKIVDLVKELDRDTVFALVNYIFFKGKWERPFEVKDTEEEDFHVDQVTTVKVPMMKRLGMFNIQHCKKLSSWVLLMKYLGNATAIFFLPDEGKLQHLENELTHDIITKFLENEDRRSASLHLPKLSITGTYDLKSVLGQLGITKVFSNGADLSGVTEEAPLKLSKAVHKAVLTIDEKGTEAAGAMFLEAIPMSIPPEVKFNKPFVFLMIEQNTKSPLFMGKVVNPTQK

“alpha-1-antitrypsin enriched native human HDL (from UniProt P01009 25-418)” showed an elastase induced TNF-α production by J774 macrophages, change compared to PBS pretreatment of -97%.

Reference: patent publication US20170319643A1
